Experiment [1] deals with 6xHis::TdPP1a (durum wheat).
The target in experiment [2] is TdPP1-H135A (durum wheat).
In experiment [3] the target is TdPP1-T243M (durum wheat).
In experiment [4] the target is TdPP1-H135A (durum wheat). The source holds these as a separate data set.
In experiment [5] the target is 6xHis::TdPP1a (durum wheat). This is another data set of the same source.
Experiment [6] deals with TdPP1-H135A (durum wheat). This is another data set of the same source.

On to 6xHis-MBP::TdRL1 (natural protein), for which the percent inhibition of phosphatase activity (pNPP) at three TdRL1 concentrations; 59% at 26 nM (1:1 molar ratio), highest value at the higher concentration in experiment [1] turned out to be 89.7%. The molecule further came in with a percent inhibition of phosphatase activity (pNPP) by TdRL1 at three concentrations; value at high concentrations in experiment [2] of 91%. Further, the IC50 of inhibition of phosphatase activity (pNPP substrate, 37 °C, 1 μg enzyme) in experiment [3] worked out at 35.6 nM; in experiment [4], 37 nM; in experiment [5], 32 nM.

B1: GST::At-I2 (natural protein)
chain: MTEPKRGRVQWDEANIVEIESNKPVRQKITEPKTPYHPMMDDDGSLSPRGRAFDECVDDMQRAEELRNVLNDAAASSSRNSSQGSGGGGWSSSDEEEEEADPMDQDEEGSGSGKNERFNAHRKAHYDEFRKVKELRSSGSFYEEEEEEDDGAKGSKSETTTNSRHTKGGNKELDATKTVSGTSSSSSPELI
With B1, the percent inhibition of phosphatase activity (pNPP) at three At-I2 concentrations; maximum at the highest concentration used in experiment [1] was found to be 90.4%. Besides, the percent inhibition of phosphatase activity (pNPP) by At-I2 at three concentrations; highest at high concentration in experiment [6] was determined as 100%.

The values above are taken from article PMC12109034.
